Assay results published in PMC6965034 (2019).

B1: GST-tagged PAK1 (Y270-H545) (domain or fragment)
chain: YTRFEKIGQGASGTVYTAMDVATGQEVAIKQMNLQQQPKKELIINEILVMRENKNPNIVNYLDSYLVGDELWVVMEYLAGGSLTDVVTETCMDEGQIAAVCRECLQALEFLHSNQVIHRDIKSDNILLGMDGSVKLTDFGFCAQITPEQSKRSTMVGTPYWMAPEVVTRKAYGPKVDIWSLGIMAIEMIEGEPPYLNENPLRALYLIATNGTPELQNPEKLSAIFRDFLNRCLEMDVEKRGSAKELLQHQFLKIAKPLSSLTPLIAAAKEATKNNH

Legend:
Test in all cases: ITC
sortilin-cd peptide B = sortilin-cd peptide B (human)
sortilin-cd peptide A = sortilin-cd peptide A (human)
sortilin-cd peptide C = sortilin-cd peptide C (human)
[1] = biological target: B1

Chain of sortilin-cd peptide A (human) (Q13153 270-545): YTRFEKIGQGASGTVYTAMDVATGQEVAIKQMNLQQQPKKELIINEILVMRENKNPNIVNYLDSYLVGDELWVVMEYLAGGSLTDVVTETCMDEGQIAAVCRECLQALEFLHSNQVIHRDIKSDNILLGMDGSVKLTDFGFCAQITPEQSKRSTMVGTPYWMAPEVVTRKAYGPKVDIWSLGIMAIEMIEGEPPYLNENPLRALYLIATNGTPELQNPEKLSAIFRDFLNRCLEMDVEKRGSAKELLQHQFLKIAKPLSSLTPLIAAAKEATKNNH
Chain of sortilin-cd peptide C (human) (Q13153 270-545): as above
Chain of sortilin-cd peptide B (human) (Q13153 270-545): as above

Kd (sortilin-cd peptide B)	Kd (sortilin-cd peptide A)	Kd (sortilin-cd peptide C)	Kd [1]	Binder
12.6 µM	14.1 µM	3.6 µM	–	B1
–	–	–	1.8 µM	complete sortilin cytoplasmic domain (K779-E831), GST tag removed (domain or fragment) KKYVCGGRFLVHRYSVLQQHAEANGVDGVDALDTASHTNKSGYHDDSDEDLLE
